From paper PMC12861225 come the findings set out here.

Conditions in all cases: glycan lost; control: wild type
The nature of data set [1]: SYPRO Orange thermal shift, pooled purified protein.
Data set [2] is described as follows: anti-Flag immunoblot, lysate vs medium, 1 μM MG-132 16 h. Background: A western blot detects proteins with antibodies after separation by electrophoresis.
Data set [3] is described as follows: anti-Flag capillary immunoblot of Flag-purified medium, pooled n=6.

B1: Tissue-nonspecific alkaline phosphatase (TNALP): N140Q/N271Q (protein)
parent chain: MISPFLVLAIGTCLTNSLVPEKEKDPKYWRDQAQETLKYALELQKLNTNVAKNVIMFLGDGMGVSTVTAARILKGQLHHNPGEETRLEMDKFPFVALSKTYNTNAQVPDSAGTATAYLCGVKANEGTVGVSAATERSRCNTTQGNEVTSILRWAKDAGKSVGIVTTTRVNHATPSAAYAHSADRDWYSDNEMPPEALSQGCKDIAYQLMHNIRDIDVIMGGGRKYMYPKNKTDVEYESDEKARGTRLDGLDLVDTWKSFKPRYKHSHFIWNRTELLTLDPHNVDYLLGLFEPGDMQYELNRNNVTDPSLSEMVVVAIQILRKNPKGFFLLVEGGRIDHGHHEGKAKQALHEAVEMDRAIGQAGSLTSSEDTLTVVTADHSHVFTFGGYTPRGNSIFGLAPMLSDTDKKPFTAILYGNGPGYKVVGGERENVSMVDYAHNNYQAQSAVPLRHETHGGEDVAVFSKGPMAHLLHGVHEQNYVPHVMAYAACIGANLGHCAPASSAGSLAAGPLLLALALYPLSVLF
Turning to B1, the “stability_or_folding, Tm” value in data set [1] was “decreases, 53.7 vs 54.5”. Moreover, the “localisation_or_trafficking, fold_change” value in data set [2] is on record as “changes”. For the same protein, the “expression_or_secretion, fold_change” value in data set [3] is “decreases, 0.2 vs 1.0”.

B2: Tissue-nonspecific alkaline phosphatase (TNALP): N230Q/N271Q (protein)
parent chain: B1 parent chain
B2: in data set [2], the “localisation_or_trafficking, fold_change” value is on record as “changes”. Also, the “expression_or_secretion, fold_change” value in data set [3] is “abolishes, 0.0 vs 1.0”.
